The target of series [1] is T1, PABPC (PABPC1 RRM1-4) (Homo sapiens, UniProt P11940 1-370). Put plainly: EMSA; RNA 10 nM; 1x binding buffer: 100 mM NaCl, 5 mM MgCl2, 0.5 mM EDTA, 0.01% NP-40, 0.1 mg/mL BSA (from 10x stock), 5% glycerol from RNA mix plus glycerol/PBS from protein stock; pH not stated; 15 min at room temperature; 6% native gel with 0.01% Triton X-100 at 4 C. Conditions: protein: commercial; tags: N-terminal 6xHis-SUMO; label: 3' Cy5.

Series [2] has as its target T1, PABPC (PABPC1 RRM1-4). The experiment in a line: EMSA; RNA 5 nM; 1x binding buffer: 100 mM NaCl, 5 mM MgCl2, 0.5 mM EDTA, 0.01% NP-40, 0.1 mg/mL BSA (from 10x stock), 5% glycerol from RNA mix plus glycerol/PBS from protein stock; pH not stated; 15 min at room temperature; 6% native gel with 0.01% Triton X-100 at 4 C. Conditions: protein: commercial; tags: N-terminal 6xHis-SUMO; label: 3' Cy5.

T1 sequence (P11940 1-370): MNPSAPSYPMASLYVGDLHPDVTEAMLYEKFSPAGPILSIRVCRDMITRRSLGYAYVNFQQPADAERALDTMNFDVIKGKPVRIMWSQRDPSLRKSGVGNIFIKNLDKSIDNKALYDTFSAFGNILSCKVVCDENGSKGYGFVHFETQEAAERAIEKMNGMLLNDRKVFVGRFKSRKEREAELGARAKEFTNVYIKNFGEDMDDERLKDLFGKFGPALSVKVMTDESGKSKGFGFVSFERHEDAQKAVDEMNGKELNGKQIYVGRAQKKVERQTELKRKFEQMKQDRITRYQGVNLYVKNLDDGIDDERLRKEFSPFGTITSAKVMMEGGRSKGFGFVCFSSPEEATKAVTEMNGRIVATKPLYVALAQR

For AAAAAAAAAAAAAAA (ssRNA) [unmodified poly(A)15], the Kd in the series with PABPC (PABPC1 RRM1-4) [1] was 110 nM.

For the molecule AAAAAAAAAAAAAAA (XNA, 2'-O-methyl and phosphorothioate on all 15 nucleotides) [fully modified poly(A)15], the Kd in the series with PABPC (PABPC1 RRM1-4) [2] was 85 nM.

In the case of AAAAAAAAAAAAAAA (XNA, 2'-O-methyl and phosphorothioate on the first three nucleotides (mA*mA*mA*A12)) [3NT Mod poly(A)15], in the series with PABPC (PABPC1 RRM1-4) [2], the Kd came out at 54 nM.

These data come from paper PMC11834087, “Use of polyadenosine tail mimetics to enhance mRNA expression from genes associated with haploinsufficiency disorders”.
